In the DeepSol protein solubility set:

Test: soluble on expression in E. coli; label from the status in PepcDB or PDB records

Soluble on expression in E. coli, not soluble:
MGSDKIHHHHHHMKQEVKGVQGQEYEIGLTVGDNRSDIFTFVISPESQIRKWEYVYIKAGETNLLGRIEDLLSKSDLLNDRMDYESVKKYTTSNIKDNVDICVVKIIGAVKDGIISRSRYLIRPGQPVFRATKEMLESIFKFDDQRSLEIGYLADQPDVKIFANINGLRRHLSIIAQTGAGKSHTAGVLMEELLKKGASIIVLDPHADYVLMKNSDKAIYRDNIKVFRTPMSTGRYTAKLGKVDEFTIKFQDLNDEEVREIMGIHENFVNQSKIVKDVMEKLTGRKDVDEFIQKSEQIDTEKRIAARIKYLKKIKAIFGDKTTDVSEYLAPSRMSVIDLSGLDQSLANYFAYKVISQAYDAKVTGSFEYPVFLFIEEAHNFAPPMKVKGSGVSQMLYDTIKKIAAEGRKFGIFLVIITQRPGKIDQDVLSQCNSQIILRITNPSDQKAILESSENISESLMSDLPSLDVGEAIIVGEIVKMPVIAKIRQRETEEGGLDVDIVEMLQKARMEAEKRNDPRAIVENVKKLME
MSNILIINGAKKFAHSNGQLNDTLTEVADGTLRDLGHDVRIVRADSDYNVKAEVQNFLWADVVIWQMPGWWMGAPWTVKKYIDDVFTEGHGTLYASDGRTRKDPSKKYGSGSLVQDKKYMLSLTWNAPMEAFTEKDQFFHGVGVDGVYLPFHKANQFLGMEPLPTFIANDVIKMPDVPRYTEEYRKHLVEIFG
MPHTGSQHTLQATPKTAQHTGAQKAPEQAIALKKEQQLKNQEGATSHRKAHTEGCHTQKTRMSADKAGLRHRQGSGEVRARTASTRVEGECSSDGVVMMFCMPARGEEEKASGEARGEDVGSSRESRQGTAHKSTCMHTEAASLQKAGEIGKVEDAKT
MLDDLPGVADNAKKILFDMKCTTVIDDCNVHLRDVLNLLEDEMHSFRLSSIEANDLDKLYDTFYYYGKKEQLIEFLLDQMTNAINFKQADKDFLIYSWLVEKLTEEQICEMLARINENTQYHWNNNLNSFVDEFVAYYKETNGIDLRINYLGAIYTNLKILSDEYTLSISDYELIFKFFEDIIESHSETIFDFQRKYKKDIETNFGNSLENFPKLNKLLFE
MIMTNINTACVKNNASYQLNNALPNKETISSNFCERLEQWGNKSVNNGEERAIAVERIKEAYNSNMASLDLSYLDLSELPPIPSTVNTLNLENNCLTCLDLADNASLVNINLSVNKINTITFPKEPKLENIYINHNNLESLDLKNQHSLVNLEAQNNSLKKLEHHHHHH
MGSDKIHHHHHHMLSKMEINKLAMKESMTLLACPICGGEFSFSEPNSFICKNHHGFDIAKPGYLHLLKQVHKTKYDQALFESRKKVIASGFFEKLIERVTEIIAETKKEEVVIYDAGSGEGSHLARVVKNLQEKGRHVQAIGLDIAKEGVKQAARDYPGIVWTVADLANCPTQTETADVILNILSPSNYEEFKRLLKTDGFLLKVVPEANYLRELREFIYVDEKSSYSNESVTSRLAEKLTVEYVERVTYKAPIANELFADFLEMTPLGWHIDKDKKSELLINPPKELTVDLKIIIANRAHLL
METLGVQTNSELREELNRLKEENARLKKELNQHQVIVNNTLDAIFICDNEMRIVQANEATERMLQVDSEDLKKRSVLDFLFSIPKDELNLSVKKFFKKGFLWKEVPIRLDCGATKYIEFLAKRGIGEDFFFVVMRDIS
MTDMKVLKMEVMRYNPERDSEPHFETFEVPYDEQTSLLDALGYIKDNLAPDLSYRWSCRMAICGSCGMMVNKVPKLACKTFLREYTAGMKVEALGNFPIERDLVVDMTHFIESLEAIKPYIIGNERLPKDGPNKQTPAQMAKYHQFSGCINCGLCYAACPQFGLNPEFIGPAAITLAHRYNLDNRDHGKKERMPQLNGKNGVWSCTFVGYCSEVCPKHVDPAAAIQQGKIDSAKDFMIAMLKPQ
MGSDKIHHHHHHMSESKIDNRLWSSKARNLSPYVPGEQPQHDDLCKLNTNENPFPPSPKVGEAITKVLAQQADDLRLYPAPESEELRGALAALYNLDINQVFVGNGSDEVLALVFASFFLKNRPVLAPDISYSFYPVYANTFGIELVQIPLEADFSISPDAYRRPCSGIIIANPNAPTGLLLSLADIRKLAGEHSDSVIVIDEAYIDFAQLEEASAESQMSAISLINEFDNLLVTQTFSKSRSLAGLRVGMAFGNASLIEALTRMKNSFNSYPLDKLAQAGATASVLDVEYFEQTCQQVIDLRTSLTAELTALGYDVLPSHANFVFARPHDGAASQVAEVLREQGIIVRHFDKPRINEYLRITIGTPSQHERLINALKALQAVADVEAS
MKLMDVHVLFSGGKDSSLSAVILKKLGYNPHLITINFGVIPSYKLAEETAKILGFKHKVITLDRKIVEKAADMIIEHKYPGPAIQYVHKTVLEILADEYSILADGTRRDDRVPKLSYSEIQSLEMRKNIQYITPLMGFGYKTLRHLASEFFILEEIKSGT

Soluble on expression in E. coli, soluble:
MSDSSSSDGEDNQKFLGNRKKNLTKKKVVTEEIEKDDEEDVKEKSFAELGVSQPLCDACQRLGWMKPSKIQQAALPHALQGKDVIGLAETGSGKTGAFAIPVLQSLLDHPQAFFCLVLTPTRELAFQIGQQFEALGSGIGLIAAVIVGGVDMAAQAMALARRPHIIVATPGRLVDHLENTKGFNLKALKFLIMDEADRILNMDFEVELDKILKVIPRERRTYLFSATMTKKVSKLERASLRDPARVSVSSRYKTVDNLKQHYIFVPNKYKETYLVYLLNEHAGNSAIVFCATCATTMQIAVMLRQLGMQAVPLHGQMSQEKRLGSLNKFKSKAREILVCTDVAARGLDIPHVDMVINYDMPSQSKDYVHRVGRTARAGRSGIAITVVTQYDVEAYQKIEANLGKKLDEYKCVENEVMVLVERTQEATENARIEMKEMDEKKKSGKKRRQNDDFGDTEESGGRFKMGIKSMGGRGGSGGGRGGKKKKMSK
MGSLEKFNLIDEPWIPVLKGGRVVEVGIGEALLRAHEFARIETPSPLEEAVLHRLLLAVLHRALSGPRCPEDVLDWWRKGGFPQDPIRDYLNRFRDRFFLFHPEAPFLQVADLPEENPLPWSKLLPELASGNNPTLFDHTTEENLPKATYAQAARALLVHQAFAPGGLLRRYGVGSAKDAPVARPALFLPTGQNLLETLLLNLVPYTPEDDAPIWEVPPLRLGDLEGARTKWPLTGRTRVYTWPARGVRLLDEGDGVRFMGYGPGVEPLEATHRDPMVAQRLDAKGNLLVLRLSEERSFWRDFSAMLPRQGGKVAATLEHAENLQGELEDEGLEGRITLRVLGQVSDQAKVLDIRREVYPLPSGLLTPKAEENLEKALKMAEELGQGLKHLAQEVAKAVVGERDRGHGRSPYLEELTKLANSLPLERLYWHALDGAFPRFFARVEEEASLDLWREALRGAALEAWKATRRFLGTGARHLKALAQGEQEFGRLLGELGEEVRT
MAHHHHHHVGTGSNDDDDKAGLVEGQNYTVLANPIPQQQAGKVEVLEFFGYFCPHCAHLEPVLSKHAKSFKDDMYLRTEHVVWQKEMLTLARLAAAVDMAAADSKDVANSHIFDAMVNQKIKLQNPEVLKKWLGEQTAFDGKKVLAAYESPESQARADKMQELTETFQIDGTPTVIVGGKYKVEFADWESGMNTIDLLADKVREEQKAAQ
MSLVTIKEIASAVGVSSATVSRVLNYDPTLSISTRKRQAIIETAEALNYATPRNRNRAAAQAVGSGLKIALVHFLDPAQELADPYYVGVRLGIESRCQALNSDVVKVFLTGNTPEATILEGASGVVAVGHYYGDELEWLRRHSRHLVFADYAPAGDMEDTVLSDVSQAMIRLLEAVHAMGYRRIGFIGWIDAFYGPDNIHSERRCHTYIDWMTKTGLFDPELCLVDPMTPDSGYRLAKAMLSKPNPPKILITCNDNMALGAYRAINEMGLRIPDDVAVASFNDIPVAQFLGPPLSTVKIPAELIGETAVDLLVERLSGREVAKKVVFGTEIIWRASTEGHHHHHH
MGSSHHHHHHSSGLVPRGSHMDFEEDYDAEFDDNQEGQLETPFPSVAGADDGDNDNDDSVAENMKKKQKREAVVDDGSENAFGIPEFTRKDKTLEEILEMMDSTPPIIPDAVIDYYLTKNGFNVADVRVKRLLALATQKFVSDIAKDAYEYSRIRSSVAVSNANNSQARARQLLQGQQQPGVQQISQQQHQQNEKTTASKVVLTVNDLSSAVAEYGLNIGRPDFYR
MLEKVYVALIHYPIKGKDGSIISTAVTNLDVHDIARTARTYNLKGYYIVTNLRAQQDMVSKMLKFWREGFGSRYNPSRAESLKLVKLKSYLEDVLEDIESVEGERPLIFFTSAKKRENDISFEEGRRIIIETEKPVLILLGTGWGLPDEILEISDYVLEPIRAQSDFNHLSVRAAAAIIIDRLIGENYARRD
